Test results from patent US10428347B2, “Herbicide-detoxifying enzymes and uses thereof” (priority 2017, dated 2019).

What was measured:
[1] = system: soybean plants; assay: Field soybean plant protection assay with dicamba, CAC or ChD and MnSO4; details: field soybean V3-V6, dicamba reaction buffer 200 ppm with 50 mM MnSO4, after 11 days
Protocol: The CAC and ChD enzymes were generated in production batches as previously described and divided up into aliquots and centrifuged to remove any cellular debris. […] The dilution to achieve 200 ppm or 200 mg/L was made in 25 mM HEPES pH 7 in a 10 mL total volume. […] To each treatment, 0.01% SILWET L-77 surfactant was added. Then, 4 mL of reaction solution was applied evenly across 20 plants and compared to the untreated control plants applied to soybean grown in the same location in the field to minimize any field variability. After 11 days, the average trifoliate damage was evaluated by visual scoring.

[2] = Absorbance spectra assay of mecoprop degradation by ChD or CAC; assay type: biochemical; details: one hour at 37° C.
Protocol: (§1) Small scale (1 mL) assays were performed to evaluate the ability of ChD and CAC to degrade MCPA-4 amine or mecoprop.
(§2) MCPA-4 amine and mecoprop have absorbance maxima (Amax) at approximately 230 and 280 nm. […] MCPA-4 amine or mecoprop end product generation is directly proportional to the degradation MCPA-4 amine or mecoprop, respectively.

[3] = Absorbance spectra assay of 2,4-D degradation by ChD or CAC; assay type: biochemical; details: 2,4-D 200 mg/L + enzyme at 20X dilution (5 μM), one hour at 37° C.
[4] = Absorbance spectra assay of MCPA-4 amine degradation by ChD or CAC; assay type: biochemical; details: one hour at 37° C.
Protocol: as §1, §2

[5] = Absorbance spectra assay of dicamba degradation by ChD or CAC; details: dicamba 200 mg/L + enzyme at 20X dilution (5 μM), one hour at 37° C.
[6] = system: lentil plants; assay: Lentil seeds coated with immobilized enzyme, grown in dicamba-containing soil; assay type: in vivo
Protocol: For each treatment group, eighteen lentil seeds were coated with immobilized salicylate monooxygenase (SM, SEQ ID NO: 21) or hydroxyphenylacetate monooxygenase (HPAM, SEQ ID NO: 30), or with a water-only control (H2O) or a control containing only the particles used for immobilization, without any enzyme (“Particle Alone”). […] 50 ml of water was selected as this is the saturation point of this soil at this scale. Herbicides were allowed to sit in the soil for 24 hours before planting of coated seeds. Germination rate was measured at one week and root and shoot lengths were measured after two weeks.
Further data illustrating the protective effects of salicylate monooxygenase (SM) and hydroxyphenylacetate monooxygenase (HPAM) on lentil plants grown in dicamba-containing soil are provided in FIGS. 6-9. Lentil seeds were treated as described above with water alone, particle alone, or enzyme immobilized on a particle. […] Growth (shoot and root length) was measured at two weeks.

[7] = system: soybean seedlings; assay: Spray of enzyme-treated dicamba solution onto soybean seedlings; assay type: in vivo; details: 208 μM dicamba, immobilized enzyme, 30° C., soybean seedlings, one week
Protocol: Salicylate monooxygenase (SM, SEQ ID NO: 21) and hydroxyphenylacetate monooxygenase (HPAM, SEQ ID NO: 30) were immobilized on particles. […] Aliquots (1 ml) were taken from incubated samples at 0 minutes, 10 minutes, 30 minutes, 1 hour, 5 hours, 24 hours and 30 hours after the introduction of SM and immediately frozen to stop the detoxification reaction. NADPH consumption was quantified by measuring loss of absorbance at 340 nm using a spectrophotometer. Results for SM are shown in panel A of FIG. 10 and results for HPAM are shown in panel A of FIG. 11. Consumption of NADPH is proportional to the degradation of dicamba.
Immediately after taking the absorbance measurements, the 1 ml aliquots were mixed with a nonionic organosilicone surfactant copolymer (0.1% SILWET L77) and 200 μL of the mixture was sprayed onto 2.5-week-old soybean seedlings (six plants per treatment group, on average). The use of the surfactant ensured even distribution of the solutions on the plants. Control plants were sprayed with water+surfactant alone or dicamba+surfactant alone. After one week, the degree of herbicide damage or the degree of protection from dicamba-induced injury (in plants treated with SM) was assessed visually.

[8] = system: soybean plants; assay: V1 soybean bioassay of dicamba reacted with ChD with or without MnSO4; details: dicamba 100-200 ppm
Protocol: Soybean plants (variety Morsoy Xtra) were planted in Timberline soil (2 seeds per pot) and grown for 12 days under controlled environmental growth conditions: 300 μmol m^−2 s^−1 (light photons) for a 13/11 light/day cycle and a 21° C. day/15° C. night temperature range until the V1 stage of development.
The dilution to achieve 100 ppm or 100 mg/L was made in 25 mM HEPES pH 7 in a 10 mL total volume. […] The ChD enzyme production was centrifuged to remove any cellular debris and then divided into aliquots of 100 μL containing the Bacillus subtillis (A64) filtrate with the ChD expressed enzyme. […] The reactions were incubated at 37° C. with 400 ppm stirring for two hours. Aliquots of the reactions were collected and stored at −80° C.

[9] = system: soybean plants; assay: Soybean seed treatment with chlorothalonil dehalogenase, simulated spray drift of dicamba or 2,4-D; assay type: in vivo; details: soybean seed coated with 3 uL enzyme, 4 weeks after planting; for Percentage Increase in Plant Height Compared to Untreated Seed (2,4-D; Weedar ®64 Spray Treatment) / Percentage Increase in Total Plant Biomass Compared to Untreated Seed (2,4-D; Weedar ®64 Spray Treatment): over the top 2,4-D 500 ppm; for Percentage Increase in Plant Height Compared to Untreated Seed (Dicamba; Clash ™ Spray Treatment) / Percentage Increase in Total Plant Biomass Compared to Untreated Seed (Dicamba; Clash ™ Spray Treatment): over the top dicamba 100 ppm
Protocol: Soybean (variety Asgrow AG4034) seed received a seed treatment with chlorothalonil dehalogenase (SEQ ID NO: 169) enzyme obtained from a production batch produced in a manner similar to that was described previously to generate the SM1 enzyme. Seed treatments were applied prior to planting. […] Seeds were then planted directly into 39.7 cm^3 pots containing a mixture of 3:1 Timberline top soil to MIRACLE GRO potting soil at a depth of 2.54 cm, with 2 seeds per pot. After planting, 50 mL of room temperature water was added to each pot to allow for germination. […] The treatments were then placed in a greenhouse and randomized using a complete block design to adjust for temperature and lighting differences. The plants received the same day/night cycle that would occur in the field on a summer's day. After the initial watering, plants received the same watering regimes. […] The soybean plants were then harvested and measured for biomass and plant height 4 weeks after planting.

[10] = Protocol: A Bacillus subtilis (A64) control reaction, which was supernatant with no SM1 enzyme was performed in parallel. The reactions were incubated at 37° C. with 400 rpm stirring for two hours. Aliquots of the reactions were collected at time 0 (T0), 1 hour, and 2 hours, and frozen at −80° C.
HPLC column (Kinetex® 5 μm C18 100 Å, LC Column 50×4.6 mm) was equilibrated for 15 minutes with 35% acetonitrile and 65% 10 mM ammonium acetate with 0.1% formic acid in water. A volume of 10 μL of each sample was injected into Waters 2695 Separations Module with a 2996 Photodiode Array Detector. Samples were run isocratically (35% acetonitrile and 65% 10 mM ammonium acetate with 0.1% formic acid in water) for 2 minutes. […] An average of 3 measurements was run for each treatment sample.
The HPLC results as reported in FIG. 2 are the average of 3 sample measurements.

[11] = system: soybean plants; assay: Trifoliate damage scoring of soybean treated with SM1-dicamba reaction products; assay type: in vivo; details: V1 soybean (Morsoy Xtra), 100 μL reaction product diluted 1:24 with 0.01% SILWET L-77 on trifoliate leaves, 6 plants; Time (hours) 2; scale 0-5
Description: These SM1-dicamba degradation products were applied to soybean seedlings (variety, Morsoy Xtra). […] The plants were scored based on trifoliate damage using the scale as described in Table 27.

[12] = listed as Chlorothalonil dehalogenase (SEQ ID NO: 169)

B1: CAC: 6-chloronicotinic acid chlorohydrolase from Bradyrhizobiaceae strain SG-6C, amino acid SEQ ID NO: 167 (protein)
chain: MSLIAIKNADWILTMDGARRVIADGSILIDKDRIRAIGKSAVIEIPPETTKVIDGRGKVVLPGLIDSHTHHSLHLGRGLADECDIQTFLYRRLYPIEASLNDEDAYISALLCQLEMIKSGTTSIIDAGNYFPEATLRAFGTTGMRGVVARSTFDIPTSSLGSLPAQVFAEETNVALKRAEEFVERNSGACDGRVQAWLQLRVLPNCSDELCRGLKSIADRLGVRYEAHAAFTKEVYEASKLQFGKSEVRRLDDLGILGEGLLLAHMGWLTPRDILLLISSKTNVVLCPTSSVHQAMGSIAFGHVPELLEMGVNVALGTDGGPHGTNDLVRQIFVAAGGYKEVRLDATIMPPETVLEMATVNGARAMGMSDQVGSIEPGKKADITIFDSRRPEWRPLHNPVANLVYCANGNSADTVIVDGRILMENRKILTFNEDDVITEAQRRSVEIGARAGLLEYGRPRWPVH
modifications: Bradyrhizobiaceae family
- average trifoliate damage score [1]: 1.0
- Percent (%) increase in 252 λ (end-product formed) compared to Mecoprop control ([2]; mecoprop 200 mg/L + enzyme at 20X dilution (5 μM)): 346%
- Percent (%) increase in 252 λ (end-product formed) compared to Mecoprop control ([2]; mecoprop 200 mg/L + enzyme at 40X dilution ([…])): 130%
- Percent (%) increase in 252 λ, (end product formed) compared to 2,4-D control [3]: 148%
- Percent (%) increase in 252 λ (end product formed) compared to MCPA-4-Amine control ([4]; MCPA-4 amine 200 mg/L + enzyme at 20X dilution (5 μM)): 340%
- Percent (%) increase in 252 λ (end product formed) compared to MCPA-4-Amine control ([4]; MCPA-4 amine 200 mg/L + enzyme at 40X dilution ([…])): 195%
- Percent (%) increase in 259 λ (end product formed) compared to dicamba control [5]: 344%

B2: HPAM: hydroxyphenylacetate monooxygenase from Bacillus cereus BGSC 6E1, amino acid SEQ ID NO: 30 (protein, listed as Bacillus cereus)
chain: MAIRTGEQYIEGLRKRNPEIWIGGRKVTDVVNEDVFREPIIQIANLYDMQHNPEYQDKITHICEETGERVSNAFLVPRNYEDLKVRRELFEVWAKATYGLMGRTPDFLNVTVTSMASNSWFFEKFNPEWGANIKNYYKHIRDNDLFLTHAIINPQNDRSKASHQQEDETMHLGVVSETAEGMYVSGAKMLATLAPITDEVIIYSYPSFKPGDERHAISFAVPIDAPGLRILCREPMQDGKRSLFDHPLASRFEEMDALLVFHNVFIPWDKVFIYQSVEAGNQLYPKTGIGHQPAHQSGVRGLVKLSFAAEVAMKLADSIGVDGFLNVQNQLAELMQDVETIRALLQVAEYEYETNSYGEVIPARLPLDTIRSLLPKMYPRAIEIIQTIGAGGLLMSPTGADFMNPEIHDDMQKYYIGREGVSSEERVRLFKLAWDLCGEAFGQRLLQYERYYSGDPVRKMGMFYNAYKKQQTFSLVNNALQSSSSEGALS
- germination rate ([6]; lentil seeds coated with immobilized enzyme, soil with dicamba 0.1× or […] label rate, one week, vs water and particle-alone controls): positive effect
- shoot length ([6]; two-week-old lentil, soil with dicamba 0.1× label rate (0.588 mg/L), vs water only or particle only controls (FIG. 6, FIG. 8)): longer shoot lengths
- incubation time of enzyme with dicamba giving plants equivalent to the water control [7]: 30 min

B3: ChD (SEQ ID NO: 169): chlorothalonil dehalogenase from Pseudomonas species strain CTN-3 with fifteen amino acid N-terminal truncation, SEQ ID NO: 169 (protein, listed as Pseudomonas sp.)
chain: MPLKFSGVLCASLLTITLSVAAHATELILDFNKVQMRSQQLAPGVYAHLPADSAELNAKGGVAGTSGGLIVGTRGAMLIETMLNRRLFDQVQALAKKEALGLPLLYAVNTSYHGDHSYGNMYLKAPTRVIQSTKTRDYVDGHLADDKAFMVKNFGAGRGVEQITARTGDILVPPGGRVSVDLGGKTVEIIDFGFAQTGGDLFVWEPQSKVMWTGNAVVASKPALPWLLDGKLVETLATLQKVYDFLPPDATIVPGHGVPMAREGLRWHLDYLAAVQAGVKDALARKLSLEQTVTELKMPEFRGYVLFDWVHPDLNVPAAYKDLAARP
- average trifoliate damage score [1]: 1.1
- epinasty score and damage score on the trifoliate leaves compared to dicamba applied alone [8]: decrease in damage
- Percentage Increase in Plant Height Compared to Untreated Seed (2,4-D; Weedar ®64 Spray Treatment) [9]: +6%
- Percentage Increase in Total Plant Biomass Compared to Untreated Seed (2,4-D; Weedar ®64 Spray Treatment) [9]: +6%
- Percentage Increase in Plant Height Compared to Untreated Seed (2,4-D; Weedar ®64 Spray Treatment) [9, 12]: +6%
- Percentage Increase in Total Plant Biomass Compared to Untreated Seed (2,4-D; Weedar ®64 Spray Treatment) [9, 12]: +6%
- Percentage Increase in Plant Height Compared to Untreated Seed (Dicamba; Clash ™ Spray Treatment) [9]: +35%
- Percentage Increase in Total Plant Biomass Compared to Untreated Seed (Dicamba; Clash ™ Spray Treatment) [9]: +149%
- Percentage Increase in Plant Height Compared to Untreated Seed (Dicamba; Clash ™ Spray Treatment) [9, 12]: +35%
- Percentage Increase in Total Plant Biomass Compared to Untreated Seed (Dicamba; Clash ™ Spray Treatment) [9, 12]: +149%

B4: SM1: salicylate monooxygenase from Bacillus cereus strain B377, amino acid SEQ ID NO: 251 (nucleotide SEQ ID NO: 243) (protein, listed as Bacillus cereus)
chain: MGKEKKYDAIVVGAGPVGLVAGLALQKKGISTLVIEADSFGRPRPGSRAIYLHSASLKLLEETSEGLGFTLAHNGIIWPVKRTFYKGKEVYVRDYGKDENLKFNRLPHFTALHQDEIEKHMYEACIKEGVEFLWDAPVKKLHITDSGVELTITNDEILKAQYVIGCDGARSIVREEAGLTFEGPRTADTFIVVDAKEDETDPLPLERIFHYQHPAMEGRNVMFVPFKGGWRIDLQLLESDNPDDYTNIESVKTWLPKVMDAKYAERITWVSSYRFHQVVANSFTDEKRRVLLAGEAAHLFAPFGARGLNSGIPDAVLAARGIEKALHSHSEEERVEAIEAAAKERRIAAQWNRDASTTALHHLQGSSPEMNMKRDIAASLVSIVPRLGRWLDEGPYGPKFGPPELTTKY
- Percent Dicamba Concentration Relative to T0 control ([10]; HPLC, Time 2 hours): 84.3%
- dicamba concentration (HPLC) ([10]; dicamba 100 ppm, 250 μL SM1 enzyme, 0.5 mM NADH, HEPES pH 7.0, 1 hour of incubation (FIG. 17)): decreased concentrations
- decrease in dicamba concentration (HPLC) ([10]; dicamba 100 ppm, 250 μL SM1 enzyme, 0.5 mM NADH, HEPES pH 7.0, 2 hours of incubation (FIG. 17)): approximately 50%
- average trifoliate damage score [11]: 2.8
